Assay results taken from PMC6158044 (Molecular microbiology, 2018).

How the values were obtained:
[1] = biological target: PrgB188-1233 (Enterococcus faecalis, UniProt Q04112); experiment: isothermal titration calorimetry; type: binding
[2] = biological target: PrgB246-558 (Enterococcus faecalis, UniProt Q04112); experiment: isothermal titration calorimetry; type: binding
[3] = biological target: PrgB188-1233 monomer (Enterococcus faecalis (plasmid pCF10), UniProt Q04112 188-1233); experiment: ITC
[4] = biological target: PrgB188-1233 dimer (Enterococcus faecalis (plasmid pCF10), UniProt Q04112 188-1233); experiment: ITC
[5] = biological target: PrgB246-558 adhesin domain (Enterococcus faecalis (plasmid pCF10), UniProt Q04112 246-558); experiment: ITC

Molecule | Kd [1] [µM] | Kd [2] [µM] | Kd [3] [µM] | Kd [4] [µM] | Kd [5] [µM]
O=P(O)(O)OCC(O)CO (centres unmarked) [glycerol phosphate] | 309 ± 55.3 | 276 ± 71.2 |  |  | 
19-bp dsDNA (dsDNA) DNA 1: GGGGGCGGGGCGGGCGGCG DNA 2: CGCCGCCCGCCCCGCCCCC |  |  | 364 ± 73.8 | 164 ± 42.4 | 46.2 ± 14.5
